Assays:
monomeric gp120 = test: ELISA or SPR against neutralization
[1] = target: 1FD6 ZM109 scaffold N173D; test: ELISA
[2] = target: 1FD6 ZM109 scaffold N130D; test: ELISA
[3] = target: 1FD6 ZM109 scaffold N192D; test: ELISA
[4] = target: 1FD6 ZM109 scaffold N160Q; test: ELISA
[5] = target: 1FD6 ZM109 scaffold N138D; test: ELISA
1FD6-ZM109 V1V2 scaffold = test: ELISA
[6] = target: 1FD6 ZM109 scaffold N189D; test: ELISA
[7] = target: Env of HIV-1 strain CNE56 (pseudovirus) (HIV-1)
[8] = target: Env of HIV-1 strain 0439 (pseudovirus) (HIV-1)
[9] = target: Env of HIV-1 strain QH209 (pseudovirus) (HIV-1)
[10] = target: Env of HIV-1 strain CNE56 (pseudovirus) (HIV-1); remark: listed apart in the source
[11] = target: Env of HIV-1 strain 398 (pseudovirus) (HIV-1)
[12] = target: Env of HIV-1 strain X2088 (pseudovirus) (HIV-1)
[13] = target: Env of HIV-1 strain A03349M1 (pseudovirus) (HIV-1)
[14] = target: Env of HIV-1 strain 6405 (pseudovirus) (HIV-1)

## monoclonal antibody PG9
Monomeric gp120
  fold weaker affinity for monomeric gp120 than for the viral spike: > 10 fold
[1]
  EC50: 7 µg/mL
[2]
  EC50: 0.4 µg/mL
[3]
  EC50: 0.1 µg/mL
[4]
  EC50: > 50 µg/mL
[5]
  EC50: 0.2 µg/mL
1FD6-ZM109 V1V2 scaffold
  EC50: 0.1 µg/mL
[6]
  EC50: 0.1 µg/mL
C2101.c1 (HIV-1)
  neutralization IC80: 0.289 µg/mL
[7]
  neutralization IC80: > 50 µg/mL
3301_V1_C24 (HIV-1)
  neutralization IC80: 1.51 µg/mL
BB539.2B13 (HIV-1)
  neutralization IC80: 0.422 µg/mL
[8]
  neutralization IC80: > 50 µg/mL
0330.v4.c3
  neutralization IC50: 0.018 µg/mL
R3265.c6
  neutralization IC50: 1.3 µg/mL
R1166.c1
  neutralization IC50: 1.55 µg/mL
MI369.A5
  neutralization IC50: 0.058 µg/mL
TH966.8
  neutralization IC50: 0.042 µg/mL
C2101.c1
  neutralization IC50: 0.026 µg/mL
CNE5
  neutralization IC50: < 0.023 µg/mL
[9]
  neutralization IC50: > 50 µg/mL
3415.v1.c1
  neutralization IC50: 0.149 µg/mL
Q842.d12
  neutralization IC50: 0.005 µg/mL
Q769.d22
  neutralization IC50: 0.007 µg/mL
C3347.c11
  neutralization IC50: 0.038 µg/mL
BS208.B1
  neutralization IC50: 0.031 µg/mL
MB539.2B7
  neutralization IC50: 0.058 µg/mL
CNE59
  neutralization IC50: 0.091 µg/mL
C1080.c3
  neutralization IC50: 0.004 µg/mL
[10]
  neutralization IC50: > 50 µg/mL
MB201.A1
  neutralization IC50: 0.024 µg/mL
6540.v4.c1
  neutralization IC50: 0.035 µg/mL
KER2018.11
  neutralization IC50: 0.001 µg/mL
Q461.e2
  neutralization IC50: 3.01 µg/mL
BB539.2B13
  neutralization IC50: 0.106 µg/mL
TH976.17
  neutralization IC50: > 50 µg/mL
RW020.2
  neutralization IC50: 0.103 µg/mL
[11]
  neutralization IC50: > 50 µg/mL
Q168.a2
  neutralization IC50: 0.106 µg/mL
Q769.h5
  neutralization IC50: 0.002 µg/mL
MS208.A1
  neutralization IC50: 0.071 µg/mL
3468_V1_C12
  neutralization IC50: 2.09 µg/mL
0815_V3_C3
  neutralization IC50: > 50 µg/mL
BB201.B42
  neutralization IC50: 0.014 µg/mL
BI369.9A
  neutralization IC50: 0.029 µg/mL
6095_V1_C10
  neutralization IC50: 0.242 µg/mL
CNE55
  neutralization IC50: 0.146 µg/mL
M02138
  neutralization IC50: 0.122 µg/mL
231965.c1
  neutralization IC50: 1.51 µg/mL
[12]
  neutralization IC50: > 50 µg/mL
ZM249.1
  neutralization IC50: 0.033 µg/mL
57128.vrc15
  neutralization IC50: 0.104 µg/mL
ZM55.28a
  neutralization IC50: 0.571 µg/mL
ZM214.15
  neutralization IC50: > 50 µg/mL
UG024.2
  neutralization IC50: 3.94 µg/mL
ZM233.6
  neutralization IC50: < 0.023 µg/mL
NKU3006.ec1
  neutralization IC50: > 50 µg/mL
[13]
  neutralization IC50: > 50 µg/mL
3337.V2.C6
  neutralization IC50: > 50 µg/mL
3016.v5.c45
  neutralization IC50: 0.286 µg/mL
3326.V4.C3
  neutralization IC50: < 0.023 µg/mL
SIVmac251.30.SG3
  neutralization IC50: > 50 µg/mL
[14]
  neutralization IC50: > 50 µg/mL
SVA.MLV
  neutralization IC50: > 50 µg/mL
3817.v2.c59
  neutralization IC50: 0.007 µg/mL
ZM197.7
  neutralization IC50: 0.414 µg/mL
ZM215.8
  neutralization IC50: < 0.023 µg/mL
UG021.16
  neutralization IC50: > 50 µg/mL
ZM53.12
  neutralization IC50: 0.041 µg/mL
